Laboratory results from publication PMC9953321.

Target: eRF1 (not stated (S. cerevisiae or human protein prepared)) (UniProt P12385)
Chain of UniProt P12385 (P12385 whole entry): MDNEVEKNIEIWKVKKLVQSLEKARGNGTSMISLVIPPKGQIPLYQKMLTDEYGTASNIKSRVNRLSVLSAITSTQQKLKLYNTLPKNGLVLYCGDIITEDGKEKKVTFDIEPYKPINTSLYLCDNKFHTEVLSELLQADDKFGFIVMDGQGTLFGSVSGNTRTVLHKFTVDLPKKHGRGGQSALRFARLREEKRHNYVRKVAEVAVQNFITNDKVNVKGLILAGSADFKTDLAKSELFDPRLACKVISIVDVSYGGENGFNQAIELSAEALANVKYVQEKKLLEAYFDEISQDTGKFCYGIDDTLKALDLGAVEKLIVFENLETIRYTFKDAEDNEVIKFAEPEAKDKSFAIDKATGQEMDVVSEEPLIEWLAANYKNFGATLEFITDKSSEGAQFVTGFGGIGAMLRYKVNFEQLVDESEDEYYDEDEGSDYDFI

Chain of eRF3 (P05453 whole entry): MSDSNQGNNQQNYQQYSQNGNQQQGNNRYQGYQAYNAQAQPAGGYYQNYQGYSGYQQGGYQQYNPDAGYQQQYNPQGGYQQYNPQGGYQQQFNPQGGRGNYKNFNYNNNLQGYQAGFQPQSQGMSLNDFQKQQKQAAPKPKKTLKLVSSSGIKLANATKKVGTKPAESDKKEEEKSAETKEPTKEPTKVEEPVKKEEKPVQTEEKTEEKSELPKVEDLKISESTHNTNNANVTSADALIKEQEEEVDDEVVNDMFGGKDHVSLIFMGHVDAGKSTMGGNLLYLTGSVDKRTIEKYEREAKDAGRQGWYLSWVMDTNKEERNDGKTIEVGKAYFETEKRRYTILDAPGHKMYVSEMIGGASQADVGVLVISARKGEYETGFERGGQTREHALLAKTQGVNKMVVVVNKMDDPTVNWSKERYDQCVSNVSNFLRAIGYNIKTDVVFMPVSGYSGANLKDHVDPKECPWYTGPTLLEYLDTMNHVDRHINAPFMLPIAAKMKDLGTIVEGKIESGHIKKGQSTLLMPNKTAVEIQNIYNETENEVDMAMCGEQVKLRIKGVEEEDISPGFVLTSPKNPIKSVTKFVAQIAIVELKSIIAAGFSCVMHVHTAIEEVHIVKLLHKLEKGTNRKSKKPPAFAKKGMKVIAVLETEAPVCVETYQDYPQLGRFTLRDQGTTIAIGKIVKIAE

For “eRF3 (from UniProt P05453 1-685) (natural protein)”, the formation of RFC at constant 0.8 µM eRF3 with 0.01 to 0.4 µM eRF1 ('early experiments' of the termination assay; how it was determined is not told) was > 90%.
